This is an account of results in patent publication US6512097.

The labels stand for the following.
B1: C6MH3-B20 (scFv)
scFv: QVQLLQSGAELKKPGESLKISCKGSGYSFTSYWIAWVRQMPGKGLEYMGLIYPGDSDTKYSPSFQGQVTISVDKSVSTAYLQWSSLKPSDSAVYFCARHDVGYCSPARCAKWPEYFQHWGQGTLVTVSSGGGGSGGGGSGGGGSQSVLTQPPSVSAAPGQKVTISCSGSSSNIGNNYVSWYQQLPGTAPKLLIYGHTNRPAGVPDRFSGSKSGTSASLAISGFRSEDEADYYCASWDYTLSGWVFGGGTKLTVLG
notes: C6ML3-9 sFv, VH CDR3 library B mutant
B2: C6MH3-B39 (scFv)
scFv: B1 scFv with S105T, P106D, A107P, R108T
notes: as for B1
B3: C6MH3-B41 (scFv)
scFv: B1 scFv with S105T, P106D, A107R, R108P
notes: as for B1
B4: C6MH3-B48 (scFv)
scFv: B1 scFv with S105T, P106D, A107P, R108S
notes: as for B1
B5: C6MH3-B5 (scFv)
scFv: B1 scFv with S105T, P106D, R108T
notes: as for B1
B6: C6MH3-D5 (scFv)
scFv: B1 scFv with P106S, A107S, R108N, Y115W, F116M, H118M
notes: C6ML3-9 sFv, VH CDR3 library D mutant
B7: C6MH3-B9 (scFv)
scFv: B1 scFv with S105K, P106T, R108A
notes: as for B1
B8: C6MH3-C3 (scFv)
scFv: B1 scFv with G15E, P106S, A107S, R108N, N198D
B9: C6MH3-D1 (scFv)
scFv: B1 scFv with P106S, A107S, R108N, Y115W, F116L, Q117H, H118V
notes: as for B6
B10: C6MH3-B21 (scFv)
scFv: B1 scFv with S105T, P106T, A107P, R108L
notes: as for B1
B11: C6MH3-B11 (scFv)
scFv: B1 scFv with P106D, A107R, R108S
notes: as for B1
B12: C6MH3-B15 (scFv)
scFv: B1 scFv with S105E, P106S, A107S
notes: as for B1
B13: C6MH3-B2 (scFv)
scFv: B1 scFv with S105T, P106D, A107P
notes: as for B1
B14: C6MH3-B16 (scFv)
scFv: B1 scFv with S105A, P106D, A107V
notes: as for B1
B15: C6MH3-B25 (scFv)
scFv: B1 scFv with S105L, P106T, A107T
notes: as for B1
B16: C6MH3-B27 (scFv)
scFv: B1 scFv with S105K, P106N, A107S
notes: as for B1
B17: C6MH3-D3 (scFv)
scFv: B1 scFv with P106S, A107S, R108N, Y115W, F116L, Q117D, H118N
notes: as for B6
B18: C6-B47D5 (scFv)
scFv: B1 scFv with S105T, P106D, A107R, R108S, Y115W, F116M, H118M
notes: Combined B47 and D5 mutations on C6ML3-9
B19: C6-B47D6 (scFv)
scFv: B1 scFv with S105T, P106D, A107R, R108S, Y115W, F116M, Q117Y, H118P
notes: Combined B47 and D6 mutations on C6ML3-9
B20: C6.5K100gA (scFv)
scFv: B1 scFv with P106S, A107S, R108N, K111A, S235A, Y238D, T239S
notes: C6.5 VH CDR3 scan mutant; Kabat numbering
B21: C6.5Q101A (scFv)
scFv: B1 scFv with P106S, A107S, R108N, Q117A, S235A, Y238D, T239S
notes: as for B20
B22: C6.5D96A (scFv)
scFv: B1 scFv with D100A, P106S, A107S, R108N, S235A, Y238D, T239S
notes: as for B20
B23: C6.5F100lA (scFv)
scFv: B1 scFv with P106S, A107S, R108N, F116A, S235A, Y238D, T239S
notes: C6.5 VH CDR3 scan mutant; Kabat numbering; also called F1001A
B24: C6.5Y99A (scFv)
scFv: B1 scFv with Y103A, P106S, A107S, R108N, S235A, Y238D, T239S
notes: as for B20
B25: C6.5H102A (scFv)
scFv: B1 scFv with P106S, A107S, R108N, H118A, S235A, Y238D, T239S
notes: as for B20
B26: C6.5N100dA (scFv)
scFv: B1 scFv with P106S, A107S, R108A, S235A, Y238D, T239S
notes: as for B20
B27: C6.5V97A (scFv)
scFv: B1 scFv with V101A, P106S, A107S, R108N, S235A, Y238D, T239S
notes: as for B20
B28: C6.5P100iA (scFv)
scFv: B1 scFv with P106S, A107S, R108N, P113A, S235A, Y238D, T239S
notes: as for B20
B29: C6.5C100S/C100eS (scFv)
scFv: B1 scFv with C104S, P106S, A107S, R108N, C109S, S235A, Y238D, T239S
notes: as for B20
B30: C6.5S100bA (scFv)
scFv: B1 scFv with P106A, A107S, R108N, S235A, Y238D, T239S
notes: as for B20
B31: C6.5S100cA (scFv)
scFv: B1 scFv with P106S, R108N, S235A, Y238D, T239S
notes: as for B20
B32: C6.5S100aA (scFv)
scFv: B1 scFv with S105A, P106S, A107S, R108N, S235A, Y238D, T239S
notes: as for B20

The term Kd denotes the equilibrium constant for the complex coming apart. A high value points to a looser complex. A word on the koff: it is the rate constant with which the complex falls apart. As a reminder, the kon is the rate constant with which the complex forms.

Positions count from the first letter of the chain named. In names and notes the source's numbering stands. Several values for one entry are separate records, joined by “and”; a condition that tells them apart may be missing. Equal values may be shown once.

In the first assay the target is T1, c-erbB-2 ECD with a Ser-Gly-His6 C-terminal fusion (UniProt P04626 23-652).
T1 construct: extracellular domain; Expressed from CHO cells, IMAC purified; coupled to a CM5 chip, coated on plates, or biotinylated with NHS-LC-biotin; also called c-erbB-2 extracellular domain; biotinylated c-erbB-2 ECD
The assay can be described thus: SPR BIAcore. How it is done: (§1) All assays were performed in triplicate. Briefly, […] of radioiodinated sFv was added to 5×10^6 SK-OV cells in the presence of increasing concentrations of unlabeled sFv from the same preparation. After a 30 minute incubation at 20° C., the samples were washed with PBS at 4° C. and centrifuged at 500 g. The amount of labeled sFv bound to the cells was determined by counting the pellets in a gamma counter and the K_a, and K_d were calculated using the EBDA program (V 2.0, G. A. McPherson, 1983). The K_d of all the other isolated sFv were determined using surface plasmon resonance in a BIAcore (Pharmacia). In a BIAcore flow cell, approximately 1400 resonance units (RU) of c-erbB-2 ECD (25 μg/ml in 10 mM sodium acetate, pH 4.5) was coupled to a CM5 sensor chip (Johnsson et al. (1991), supra). Association and dissociation-rates were measured under continuous flow of […] using a concentration range from 50 to 800 nM. Rate constant $kon$ was determined from a plot of (1(dR/dt))/t vs concentration (Karlsson et al. (1991), supra). Rate constant $Hoff$ was determined from the dissociation part of the sensorgram at the highest concentration of sFv analyzed.
Dashes indicate sequence identity. Mutations arising from PCR error and located outside V_H CDR3 are listed under the heading other mutations. F = frequency of isolated scFv. *$koff$ determined from unpurified scFv samples. Underline indicates mutated residue.
A general note: In SPR one partner is held on a chip, and binding of the other changes the refractive index at the surface.
Turning to B1, the Kd was found to be 0.87 nM and the koff worked out at 0.00016 s⁻¹.

In the case of B2, binding was characterised by a dissociation constant (Kd) of 0.32 nM and the koff came out at 0.00019 s⁻¹.

In turn, B3 gave a Kd of 0.53 nM and a koff of 0.00027 s⁻¹.

Turning to B4, the Kd is 0.23 nM and the koff is 0.00013 s⁻¹.

On to B5, for which the Kd came out at 0.34 nM and the koff was determined as 0.00023 s⁻¹.

B6 gave a Kd of 0.38 nM and a koff of 0.00021 s⁻¹.

With B7, the Kd was determined as 0.87 nM and the koff worked out at 0.00033 s⁻¹.

Turning to B8, the affinity, expressed as Kd, was 0.65 nM and the koff is 0.00032 s⁻¹.

In turn, B9 gave a Kd of 0.31 nM and a koff of 0.00011 s⁻¹.

Regarding B10, the Kd worked out at 0.73 nM and the koff was found to be 0.00024 s⁻¹.

Molecule B11 displayed a Kd of 0.22 nM and a koff of 0.00023 s⁻¹.

For B12, the Kd is 0.77 nM and the off-rate (koff) is 0.00029 s⁻¹.

With B13, the Kd is 0.31 nM and 0.58 nM; the koff was 0.00031 s⁻¹ and 0.00032 s⁻¹.

Consider B14, for which the Kd is 0.31 nM and the koff was determined as 0.00028 s⁻¹.

Molecule B15 returned a Kd of 0.36 nM and a koff of 0.00019 s⁻¹.

B16 displayed a Kd of 0.47 nM and a koff of 0.0004 s⁻¹.

As for B17, binding was characterised by a dissociation constant (Kd) of 0.27 nM and the koff is 0.00025 s⁻¹.

The next assay has as its target T1, c-erbB-2 ECD with a Ser-Gly-His6 …. The experiment in a line: SPR BIAcore. This is another data set of the same source. How it is done:
as §1
Mutants obtained by combining mutations of C6MH3-B1 or C6MH3-B47 with mutations from D library clones (D1, D2, D3, D5, D6). Rate constants $kon$ and $koff$ were measured by SPR in a BIAcore, and the K_d calculated.
With B18, the Kd turned out to be 0.063 nM, the “Kd (C6.5)/Kd (mut)” value was 254, the “Kd (parent)/Kd (mut)” value turned out to be 1.7 and the koff is 3.9e-05 s⁻¹. Further, the kon was found to be 620000 M⁻¹ s⁻¹.

For B19, the affinity, expressed as Kd, was 0.051 nM; the “Kd (C6.5)/Kd (mut)” value was 314; the “Kd (parent)/Kd (mut)” value was found to be 2.2; the koff was 3e-05 s⁻¹. The molecule also displayed an association rate constant (kon) of 590000 M⁻¹ s⁻¹.

The target is the same in a further assay. The experiment in a line: SPR BIAcore. The source holds these as a separate data set.
In the case of B20, the Kd stood at 9.8 nM, the “Kd (mutant)/Kd (C6.5)” value was found to be 0.6, the koff came out at 0.0042 s⁻¹ and the kon stood at 430000 M⁻¹ s⁻¹.

On to B21, for which the Kd was 8.2 nM, the “Kd (mutant)/Kd (C6.5)” value is 0.5, the koff was determined as 0.0098 s⁻¹ and the kon was found to be 1.2e+06 M⁻¹ s⁻¹.

Regarding B22, binding was put at a Kd of 45 nM, the “Kd (mutant)/Kd (C6.5)” value was 2.8, the dissociation rate constant (koff) was found to be 0.01 s⁻¹ and the kon stood at 220000 M⁻¹ s⁻¹.

Consider B23, for which the Kd stood at 454 nM, the “Kd (mutant)/Kd (C6.5)” value amounted to 28.4, the koff was 0.05 s⁻¹ and the kon came out at 110000 M⁻¹ s⁻¹.

With B24, binding was characterised by a dissociation constant (Kd) of 59 nM, the “Kd (mutant)/Kd (C6.5)” value stood at 3.7, the koff was 0.053 s⁻¹ and the kon was 900000 M⁻¹ s⁻¹.

On to B25, for which binding was put at a Kd of 19 nM, the “Kd (mutant)/Kd (C6.5)” value was determined as 1.2, the koff came to 0.011 s⁻¹ and the kon worked out at 590000 M⁻¹ s⁻¹.

B26: binding was characterised by a dissociation constant (Kd) of 29 nM, the “Kd (mutant)/Kd (C6.5)” value came out at 1.8, the koff amounted to 0.012 s⁻¹ and the kon came out at 410000 M⁻¹ s⁻¹.

B27: the Kd was determined as 48 nM, the “Kd (mutant)/Kd (C6.5)” value came out at 3, the koff was determined as 0.015 s⁻¹ and the kon is 310000 M⁻¹ s⁻¹.

For the molecule B28, binding was put at a Kd of 10 nM, the “Kd (mutant)/Kd (C6.5)” value was 0.6, the koff was 0.011 s⁻¹ and the kon was determined as 1.05e+06 M⁻¹ s⁻¹.

As for B29, the Kd came to 280 nM, the “Kd (mutant)/Kd (C6.5)” value worked out at 17.5, the koff was 0.138 s⁻¹ and the kon was 500000 M⁻¹ s⁻¹.

As to B30, the Kd stood at 47 nM, the “Kd (mutant)/Kd (C6.5)” value was 2.9, the koff came out at 0.016 s⁻¹ and the kon worked out at 340000 M⁻¹ s⁻¹.

On to B31, for which the Kd came out at 24 nM, the “Kd (mutant)/Kd (C6.5)” value was determined as 1.5, the off-rate constant (koff) is 0.011 s⁻¹ and the kon was determined as 450000 M⁻¹ s⁻¹.

In the case of B32, the Kd was 28 nM, the “Kd (mutant)/Kd (C6.5)” value stood at 1.8, the koff is 0.013 s⁻¹ and the kon came out at 470000 M⁻¹ s⁻¹.
